Data reported in IntAct's records for PubMed 18971339.

B1: Interferon-induced, double-stranded RNA-activated protein kinase (Homo sapiens), P19525 (parent)
chain: MAGDLSAGFFMEELNTYRQKQGVVLKYQELPNSGPPHDRRFTFQVIIDGREFPEGEGRSKKEAKNAAAKLAVEILNKEKKAVSPLLLTTTNSSEGLSMGNYIGLINRIAQKKRLTVNYEQCASGVHGPEGFHYKCKMGQKEYSIGTGSTKQEAKQLAAKLAYLQILSEETSVKSDYLSSGSFATTCESQSNSLVTSTLASESSSEGDFSADTSEINSNSDSLNSSSLLMNGLRNNQRKAKRSLAPRFDLPDMKETKYTVDKRFGMDFKEIELIGSGGFGQVFKAKHRIDGKTYVIKRVKYNNEKAEREVKALAKLDHVNIVHYNGCWDGFDYDPETSDDSLESSDYDPENSKNSSRSKTKCLFIQMEFCDKGTLEQWIEKRRGEKLDKVLALELFEQITKGVDYIHSKKLIHRDLKPSNIFLVDTKQVKIGDFGLVTSLKNDGKRTRSKGTLRYMSPEQISSQDYGKEVDLYALGLILAELLHVCDTAFETSKFFTDLRDGIISDIFDKKEKTLLQKLLSKKPEDRPNTSEILRTLTVWKKSPEKNERHTC
partner: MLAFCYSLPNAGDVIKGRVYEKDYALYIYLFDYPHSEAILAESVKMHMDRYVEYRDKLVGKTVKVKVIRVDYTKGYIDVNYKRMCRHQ

Variants of: B1
Settings: with pg041_vaccc OPG041, P20639

| Variant | effect of a mutation on the interaction |
| --- | --- |
| MAGDLSAGFFMEELNTYRQKQGVVLKYQELPNSGPPHDRRFTFQVIIDGREFPEGEGRSKKEAKNAAAKLAVEILNKEKKAVSPLLLTTTNSSEGLSMGNYIGLINRIAQKKRLTVNYEQCASGVHGPEGFHYKCKMGQKEYSIGTGSTKQEAKQLAAKLAYLQILSEETSVKSDYLSSGSFATTCESQSNSLVTSTLASESSSEGDFSADTSEINSNSDSLNSSSLLMNGLRNNQRKAKRSLAPRFDLPDMKETKYTVDKRFGMDFKEIELIGSGGFGQVFKAKHRIDGKTYVIKRVKYNNEKAEREVKALAKLDHVNIVHYNGCWDGFDYDPETSDDSLESSDYDPENSKNSSRSKTKCLFIQMEFCDKGTLEQWIEKRRGEKLDKVLALELFEQITKGVDYIHSKKLIHRDLKPSNIFLVDTKQVKIGDFGLVTSLKNDGKRTRSKGTLRYMSPEQISSQDYGKEVDLYALGLILAELLHVCVTAFETSKFFTDLRDGIISDIFDKKEKTLLQKLLSKKPEDRPNTSEILRTLTVWKKSPEKNERHTC [D486V] | decreasing interaction strength |
